Measurements as given in PMC10246912.

Molecular target: human angiotensin-converting enzyme 2 receptor (hACE2) (human) (UniProt Q9BYF1)
Assay: SPR

S-2P (prefusion-stabilised SARS-CoV-2 spike with K986P and V987P) (domain or fragment)
Kd: 0.2 nM
